Legend:
human 4-1BB on cells [1] = molecular target: T1, human 4-1BB on cells (human, UniProt Q07011 24-255); assay: cell-based or functional assay
[2] = molecular target: T2, human GPC3 on HepG2 cells (human, UniProt P51654 25-554); assay: flow cytometry, HepG2 cells
T2 construct: whole, on cells; Endogenous GPC3 of the tumor cell line; also called GPC3-positive tumor cell line HepG2; human GPC3-expressing HepG2 cells
Experimental: (§1) GPC3-positive tumor cell line HepG2 was cultured in Dulbecco's Modified Eagle's Medium ([…], Pan Biotech) supplemented with 10% Fetal Calf Serum (Sigma-Aldrich) and in cell culture flasks according to manufacturer's instruction (37° C., 5% CO₂ atmosphere).
(§2) 5×10⁴ cells per well were incubated for 1 h in ice-cold PBS containing 5% fetal calf serum (PBS-FCS). A dilution series of the tested multimeric proteins (SEQ ID NOs: 38-44 and 46-55), the 4-1BB-targeting lipocalin mutein as included in the multimeric proteins (SEQ ID NO: 64) or the GPC3-targeting lipocalin SEQ ID NO: 90 were added to the cells and incubated for 1 h on ice. Cells were washed twice with PBS and then incubated with a rabbit anti-NGAL or a goat anti-human IgG labeled with fluorescent dye Alexa 488 for 30 min on ice. Human IgG4 isotype (SEQ ID NOs: 29 and 30) and lipocalin mutein SEQ ID NO: 8 were tested as a negative control. Cells were subsequently washed and analyzed using iQue Flow cytometer (Intellicyte Screener). Mean geometric fluorescent signals were plotted and fitted with Graphpad software using nonlinear regression (shared bottom, four parameters, variable slope).

human 4-1BB on cells [3] = molecular target: T1, human 4-1BB on cells; assay: flow cytometry, Flp-In-CHO::hu4-1BB cells
Summary of the method: (§3)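 Flp-In CHO cells stably expressing human or cynomolgus 4-1BB (mock-transfected control), 5×10⁴/well, incubated 1 h on ice with dilution series of test proteins. Binding detected with rabbit anti-NGAL or Alexa 488 anti-human IgG (30 min, ice); geometric mean fluorescence fitted by four-parameter nonlinear regression.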

[4] = molecular target: T3, huGPC3-His (human GPC3 with C-terminal polyhistidine tag, R&D Systems) (human, UniProt P51654 25-559, limits assumed); assay: dual-binding ELISA, huGPC3-His coated, detection with biotinylated hu4-1BB-His and Extravidin-HRP
T3 construct: Bought; not shown: C-terminal polyhistidine tag
Experimental: Recombinant huGPC3-His (human GPC3 with C-terminal polyhistidine tag, R&D Systems) at the concentration of 1 μg/mL in PBS was coated overnight on microtiter plates at 4° C. After washing with PBS-0.05% T (PBS supplemented with 0.05% (v/v) Tween 20), the plates were blocked with 2% BSA (w/v) in PBS-0.1% T (PBS supplemented with 0.1% (v/v) Tween 20) for 1 h at room temperature. After washing with 100 μL PBS-0.05% T five times, exemplary multimeric proteins (SEQ ID NOs: 54 and 55) at different concentrations, ranging from 100 to 0.002 nM, were added to the wells and incubated for 1 h at room temperature, followed by another wash step. Bound molecules under study were detected by incubation with 1 μg/mL recombinant hu4-1BB-His (biotinylated human 4-1BB with C-terminal polyhistidine tag, Sino Biological) in PBS-0.1% T-2% BSA for 1 h. This step was followed by a further wash step and incubation with 1:5000 diluted Extravidin-HRP in PBS-0.1% T-2% BSA. After an additional wash step, fluorogenic HRP substrate (QuantaBlu, Thermo) was added to each well and the fluorescence intensity was detected using a fluorescence microplate reader.

[5] = molecular target: T3, huGPC3-His (human GPC3 with C-terminal …); assay: ELISA, huGPC3-His coated, detection anti-NGAL-HRP
Experimental: (§4) Recombinant hu4-1BB-His (human 4-1BB with a C-terminal polyhistidine tag, R&D Systems) at the concentration of 1 μg/mL in PBS was coated overnight on microtiter plates at 4° C. After washing with PBS-0.05% T (PBS supplemented with 0.05% (v/v) Tween 20), the plates were blocked with 2% BSA (w/v) in PBS-0.1% T (PBS supplemented with 0.1% (v/v) Tween 20) for 1 h at room temperature. After washing with 100 μL PBS-0.05% T five times, exemplary multimeric proteins (SEQ ID NOs: 38-44 and 46-53) or 4-1BB-specific lipocalin mutein as included in the multimeric protein (SEQ ID NO: 64) at different concentrations, ranging from 100 to 0.002 nM, were added to the wells and incubated for 1 h at room temperature, followed by another wash step. Bound molecules under study were detected by incubation with 1:1000 diluted anti-NGAL-HRP in PBS-0.1% T-2% BSA. After an additional wash step, fluorogenic HRP substrate (QuantaBlu, Thermo) was added to each well and the fluorescence intensity was detected using a fluorescence microplate reader.
The same ELISA setup was also employed to determine the binding potency of exemplary bispecific multimeric proteins (SEQ ID NO: 54 and SEQ ID NO: 55) to GPC3, where huGPC3-His (human GPC3 with C-terminal polyhistidine tag, R&D Systems) was instead coated on a microtiter plate. The testing agents were similarly titrated and bound agents detected.

hu4-1BB-Fc (R&D Systems) = molecular target: T4, hu4-1BB-Fc (R&D Systems) (human, UniProt Q07011 24-186); assay: SPR (Biacore 8K), hu4-1BB-Fc captured by anti-human IgG Fc; apparent value, 1:1 fit
T4 construct: Bought; also called human 4-1BB; not shown: human IgG Fc of the bought fusion
Summary of the method: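 hu4-1BB-Fc at 0.3 μg/mL captured for 180 s on amine-coupled anti-human IgG Fc (CM5 chip). Analyte contact 180 s, dissociation 1200 s or 3000 s, 30 μL/min, 25° C. Double-referenced sensorgrams fitted to a 1:1 binding model.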

[6] = molecular target: T5, cynomolgus 4-1BB on CHO cells (cynomolgus, UniProt A9YYE7 24-254); assay: flow cytometry, Flp-In-CHO::cyno4-1BB cells
T5 construct: also called Flp-In-CHO::cyno4-1BB; cynomolgus 4-1BB-expressing CHO cells
Summary of the method: as §3

human 4-1BB on cells [7] = molecular target: T1, human 4-1BB on cells; assay: flow cytometry on CHO cells stably transfected with human 4-1BB, anti-NGAL detection, GeoMean BL1-H
Experimental: as §2
(§5) Target-specific binding of hexavalent trimeric proteins to human 4-1BB-, OX40- or PD-L1-expressing cells was assessed by flow cytometry as described in Example 5, using CHO cells stably transfected with human 4-1BB, human OX40 or human PD-L1 (Flp-In system; Life Technologies).

[8] = molecular target: T6, recombinant hu4-1BB-His (human 4-1BB with a C-terminal polyhistidine tag, R&D Systems) (human, UniProt Q07011 24-186); assay: ELISA, hu4-1BB-His coated, detection anti-NGAL-HRP
T6 construct: Bought; not shown: C-terminal polyhistidine tag
Summary of the method: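 Plates coated with hu4-1BB-His (1 μg/mL, overnight, 4° C) and blocked with 2% BSA; test proteins at 100 to 0.002 nM bound 1 h at room temperature. Detection by anti-NGAL-HRP with fluorogenic substrate; EC₅₀ from 1:1 sigmoidal fit, slope fixed to one.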

[9] = molecular target: T5, cynomolgus 4-1BB on CHO cells; assay: flow cytometry on Flp-In-CHO::cyCD137 (cynomolgus 4-1BB) cells, anti-NGAL detection, GeoMean BL1-H [Cont'd) B]
Experimental: (§6) CHO cells were stably transfected with human 4-1BB, cynomolgus 4-1BB, or a mock control using the Flp-In system (Life Technologies) according to the manufacturer's instructions. Transfected CHO cells were maintained in Ham's F12 medium (Life Technologies) supplemented with 10% Fetal Calf Serum (Biochrom) and 500 μg/ml Hygromycin B (Roth). Cells were cultured in cell culture flasks according to manufacturer's instruction (37° C., 5% CO₂ atmosphere).
as §2

[10] = molecular target: T2, human GPC3 on HepG2 cells; assay: flow cytometry on HepG2 cells (human GPC3), anti-NGAL detection, GeoMean BL1-H [Cont'd) C]
Experimental: as §1, §2

[11] = molecular target: T6, recombinant hu4-1BB-His (human 4-1BB …); assay: ELISA, hu4-1BB-His coated on the plate, bound agent detected with anti-NGAL-HRP
Experimental: C-terminal His-tagged 4-1BB or GPC3 was coated on a microtiter plate, and the tested agents were titrated starting with the highest concentration of 100 nM. Bound agents under study were detected via anti-NGAL-HRP. The data was fit with a 1:1 binding model with the EC₅₀ value and the maximum signal as free parameters, and a slope that was fixed to one.
as §4

human 4-1BB on cells [12] = molecular target: T1, human 4-1BB on cells; assay: flow cytometry on Flp-In-CHO::huCD137 (human 4-1BB) cells, anti-NGAL detection, GeoMean BL1-H
Experimental: as §6, §2

human PD-L1 on CHO cells = molecular target: T7, human PD-L1 on CHO cells (human, UniProt Q9NZQ7 19-290); assay: flow cytometry on CHO cells stably transfected with human PD-L1, anti-NGAL detection, GeoMean BL1-H
T7 construct: whole, on cells; Stably transfected CHO cells; also called Flp-In-CHO::huPD-L1; human PD-L1-expressing CHO cells
Experimental: as §2, §5

T1 sequence (Q07011 24-255): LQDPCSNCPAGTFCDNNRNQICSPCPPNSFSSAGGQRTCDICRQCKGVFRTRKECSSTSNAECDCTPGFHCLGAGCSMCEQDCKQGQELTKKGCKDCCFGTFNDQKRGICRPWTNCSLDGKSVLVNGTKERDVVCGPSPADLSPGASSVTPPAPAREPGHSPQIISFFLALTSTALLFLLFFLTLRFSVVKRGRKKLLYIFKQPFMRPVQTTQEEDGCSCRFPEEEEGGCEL
T5 sequence (A9YYE7 entry or part of it limits assumed): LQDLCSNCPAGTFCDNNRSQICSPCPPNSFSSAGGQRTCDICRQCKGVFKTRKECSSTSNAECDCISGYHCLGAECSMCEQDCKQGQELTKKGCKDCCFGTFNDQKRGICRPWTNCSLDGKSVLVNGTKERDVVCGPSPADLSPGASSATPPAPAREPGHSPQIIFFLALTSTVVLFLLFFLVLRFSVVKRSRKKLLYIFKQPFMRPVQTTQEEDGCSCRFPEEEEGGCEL
T3 sequence (P51654 25-559 limits assumed): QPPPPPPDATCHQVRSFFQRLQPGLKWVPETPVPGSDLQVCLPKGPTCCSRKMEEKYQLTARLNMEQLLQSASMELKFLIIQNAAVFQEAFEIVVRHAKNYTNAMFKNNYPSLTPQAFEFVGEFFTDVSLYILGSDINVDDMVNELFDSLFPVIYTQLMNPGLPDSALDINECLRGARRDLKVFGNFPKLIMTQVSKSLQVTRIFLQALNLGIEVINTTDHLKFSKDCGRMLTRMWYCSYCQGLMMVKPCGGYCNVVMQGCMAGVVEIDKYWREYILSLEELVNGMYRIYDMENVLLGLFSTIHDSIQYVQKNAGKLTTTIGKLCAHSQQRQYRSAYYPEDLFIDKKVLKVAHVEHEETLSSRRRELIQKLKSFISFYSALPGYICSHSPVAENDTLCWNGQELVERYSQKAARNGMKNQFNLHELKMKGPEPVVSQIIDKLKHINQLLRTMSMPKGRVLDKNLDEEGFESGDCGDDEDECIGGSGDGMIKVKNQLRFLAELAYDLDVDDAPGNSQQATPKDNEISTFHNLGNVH
T2 sequence (P51654 25-554 limits assumed): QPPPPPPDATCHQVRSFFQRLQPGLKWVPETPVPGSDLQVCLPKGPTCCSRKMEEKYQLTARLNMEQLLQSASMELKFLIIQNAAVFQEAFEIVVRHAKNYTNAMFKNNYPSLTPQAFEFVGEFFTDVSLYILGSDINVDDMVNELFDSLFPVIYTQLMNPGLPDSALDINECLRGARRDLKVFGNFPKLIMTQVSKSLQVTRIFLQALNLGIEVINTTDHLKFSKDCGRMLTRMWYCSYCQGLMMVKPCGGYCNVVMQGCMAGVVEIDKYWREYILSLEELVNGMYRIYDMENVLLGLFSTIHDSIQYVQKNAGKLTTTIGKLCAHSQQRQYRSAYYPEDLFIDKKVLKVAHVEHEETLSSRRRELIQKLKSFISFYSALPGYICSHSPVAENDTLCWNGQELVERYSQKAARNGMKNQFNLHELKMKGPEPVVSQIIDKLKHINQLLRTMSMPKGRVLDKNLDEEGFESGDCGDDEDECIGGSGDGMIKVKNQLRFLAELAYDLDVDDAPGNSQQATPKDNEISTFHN
T7 sequence (Q9NZQ7 19-290): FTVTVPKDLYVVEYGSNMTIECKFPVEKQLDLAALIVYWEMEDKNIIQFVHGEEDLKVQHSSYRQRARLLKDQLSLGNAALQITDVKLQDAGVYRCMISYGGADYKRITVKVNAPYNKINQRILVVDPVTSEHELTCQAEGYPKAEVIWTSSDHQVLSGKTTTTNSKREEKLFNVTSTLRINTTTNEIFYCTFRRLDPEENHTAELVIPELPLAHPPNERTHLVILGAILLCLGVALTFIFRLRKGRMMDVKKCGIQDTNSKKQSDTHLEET

EC50 [nM], 4-1BB bioassay (NFκB-luc2/4-1BB Jurkat luminescence), with HepG2 cells (human 4-1BB on cells [1]) [nM]	EC50 [2] [nM]	EC50 (human 4-1BB on cells [3]) [nM]	EC50 [4] [nM]	EC50 [5] [nM]	Kd (hu4-1BB-Fc (R&D Systems)) [nM]	koff (hu4-1BB-Fc (R&D Systems)) [s⁻¹]	kon (hu4-1BB-Fc (R&D Systems)) [M⁻¹ s⁻¹]	EC50 [6] [nM]	EC50 (read off the curve) (human 4-1BB on cells [7]) [nM]	EC50 [8] [nM]	binding result [9]	binding result [10]	binding result [11]	binding result (human 4-1BB on cells [12])	binding result (human PD-L1 on CHO cells)	Binder
0.69	2.98	4.08	1.3	0.1	0.71	5.99e-05	84000	6.62	–	–	–	–	–	–	–	bispecific multimeric protein SEQ ID NO: 55 (designed binder) QDSTSDLIPAPPLSKVPLQQNFQDNQFQGKWYVVGRAGNVGLREDKDPPKMWATIYELKEDKSYDVTNVRFARKKCTYSIGTFVPGSQPGEFTLGQIKSEPGGTANLVRVVSTNYNQHAMVFFKEVYQNREIFFIILYGRTKELTSELKENFIRFSKSLGLPENHIVFPVPIDQCIDGGGGGSGGGGSGGGGSGVRLWATRQAMLGQVHEVPEGWLIFVAEQEELYVRVQNGFRKVQLEARTPLGGGGSGGGGSGGGGSQDSTSDLIPAPPLSKVPLQQNFQDNQFHGKWYVVGQAGNIRLREDKDPIKMMATIYELKEDKSYDVTMVKFDDKKCMYDIWTFVPGSQPGEFTLGKIKSFPGHTSSLVRVVSTNYNQHAMVFFKFVFQNREEFYITLYGRTKELTSELKENFIRFSKSLGLPENHIVFPVPIDQCIDGGGSGGAPEQKLISEEDLGSHHHHHHHHHH
1	–	1.5	–	–	0.24	2.19e-05	90400	3.36	~2	0.12	–	–	–	–	–	multimeric protein SEQ ID NO: 52 (designed binder) QDSTSDLIPAPPLSKVPLQQNFQDNQFHGKWYVVGQAGNIRLREDKDPIKMMATIYELKEDKSYDVTMVKFDDKKCMYDIWTFVPGSQPGEFTLGKIKSFPGHTSSLVRVVSTNYNQHAMVFFKFVFQNREEFYITLYGRTKELTSELKENFIRFSKSLGLPENHIVFPVPIDQCIDGGGGGSGGGGSGGGGSQDSTSDLIPAPPLSKVPLQQNFQDNQFHGKWYVVGQAGNIRLREDKDPIKMMATIYELKEDKSYDVTMVKFDDKKCMYDIWTFVPGSQPGEFTLGKIKSFPGHTSSLVRVVSTNYNQHAMVFFKFVFQNREEFYITLYGRTKELTSELKENFIRFSKSLGLPENHIVFPVPIDQCIDGGGGGSGGGGSGGGGSGVRLWATRQAMLGQVHEVPEGWLIFVAEQEELYVRVQNGFRKVQLEARTPLGGSGGAPEQKLISEEDLGSHHHHHHHHHH
–	–	–	–	–	–	–	–	–	–	–	no binding (tested: about 200 nM)	no binding (tested: about 200 nM)	no binding (tested: 100 nM)	no binding (tested: about 200 nM)	no binding (tested: about 7 nM)	SEQ ID NO: 8 (designed binder) lipocalin mutein: QDSTSDLIPAPPLSKVPLQQNFQDNQFHGKWYVVGLAGNAILREDKDPQKMYATIYELKEDKSYNVTSVLFRKKKCDYWIRTFVPGSQPGEFTLGNIKSYPGLTSYLVRVVSTNYNQHAMVFFKKVSQNREYFKITLYGRTKELTSELKENFIRFSKSLGLPENHIVFPVPIDQCIDG
